Laboratory results from patent US20220204580A1 (AstraZeneca / MedImmune, published 2022).
Values belong to the binder of their own block, whether it stands above or below them. Numbered stars: 1 amine (or outer) side, 2 acyl side, 3 side chain; on linkers, the order of the positions; unused ones are H or OH. Bridge positions count the residues as written; N and C are the ends. Square brackets hold non-standard residues; d marks the D form. Side chains are listed from the residue outwards. Ends that are not written are not given here. * marks the point of attachment. C18 diacid = O=C(O)CCCCCCCCCCCCCCCCC(=O)*; γGlu = O=C(O)[C@H](CCC(=O)[*:2])N[*:1]; αMeF = C[C@](N)(Cc1ccccc1)C(=O)O; Dab = NCC[C@H](N)C(=O)O; Aib = CC(C)(N)C(=O)O

Columns and labels:
Test in all cases: cell-based or functional assay
[1] = molecular target: T1, human calcitonin receptor (human, UniProt P30988 25-474)
T1 sequence (looked up): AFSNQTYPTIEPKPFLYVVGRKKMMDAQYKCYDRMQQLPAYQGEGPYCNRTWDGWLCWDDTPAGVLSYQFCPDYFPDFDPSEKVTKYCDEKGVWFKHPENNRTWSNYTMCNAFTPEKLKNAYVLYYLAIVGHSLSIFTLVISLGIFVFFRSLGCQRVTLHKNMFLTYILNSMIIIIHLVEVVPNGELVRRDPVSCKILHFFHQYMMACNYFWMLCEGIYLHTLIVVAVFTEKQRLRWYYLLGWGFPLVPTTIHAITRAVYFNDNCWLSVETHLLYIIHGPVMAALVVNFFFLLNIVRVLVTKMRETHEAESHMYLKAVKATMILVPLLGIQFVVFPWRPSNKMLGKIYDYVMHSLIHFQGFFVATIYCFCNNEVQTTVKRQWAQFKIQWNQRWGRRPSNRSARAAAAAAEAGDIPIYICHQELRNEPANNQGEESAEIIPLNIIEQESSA

[2] = molecular target: T2, human amylin receptor (calcitonin receptor co-expressed with receptor activity modifying protein, RAMP3) (human, UniProt P30988 25-474; O60896 24-148)
T2 sequence (looked up) 1: T1 sequence (looked up)
T2 sequence (looked up) 2: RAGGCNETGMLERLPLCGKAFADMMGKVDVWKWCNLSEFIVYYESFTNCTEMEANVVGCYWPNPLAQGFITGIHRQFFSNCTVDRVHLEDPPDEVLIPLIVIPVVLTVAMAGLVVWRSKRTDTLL

[3] = molecular target: T3, rat amylin receptor (calcitonin receptor co-expressed with receptor activity modifying protein, RAMP3) (rat, UniProt P32214 25-516; Q9JJ73 23-147)
T3 sequence (looked up) 1: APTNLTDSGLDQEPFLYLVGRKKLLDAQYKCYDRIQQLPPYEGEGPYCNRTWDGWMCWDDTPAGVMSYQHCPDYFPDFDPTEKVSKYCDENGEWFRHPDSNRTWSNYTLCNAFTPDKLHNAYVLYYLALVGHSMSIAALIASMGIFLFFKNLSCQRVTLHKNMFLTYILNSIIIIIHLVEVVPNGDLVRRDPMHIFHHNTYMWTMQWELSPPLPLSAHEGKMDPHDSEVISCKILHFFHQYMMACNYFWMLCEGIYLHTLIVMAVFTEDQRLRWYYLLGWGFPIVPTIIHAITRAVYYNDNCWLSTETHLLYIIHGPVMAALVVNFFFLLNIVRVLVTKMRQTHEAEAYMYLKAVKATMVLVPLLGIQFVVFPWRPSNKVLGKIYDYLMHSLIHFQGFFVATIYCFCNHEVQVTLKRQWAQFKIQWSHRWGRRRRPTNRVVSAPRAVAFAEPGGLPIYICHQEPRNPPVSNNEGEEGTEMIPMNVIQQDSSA
T3 sequence (looked up) 2: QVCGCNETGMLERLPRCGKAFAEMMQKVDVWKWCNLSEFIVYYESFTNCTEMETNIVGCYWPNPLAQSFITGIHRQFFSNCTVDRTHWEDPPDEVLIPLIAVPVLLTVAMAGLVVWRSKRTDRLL

rat calcitonin receptor = molecular target: T4, rat calcitonin receptor (rat, UniProt P32214 25-516)
T4 sequence (looked up): T3 sequence (looked up) 1

B1: Peptide 32 (SEQ ID NO: 32) (peptide)
peptide: K([γGlu-C18 diacid])KCNTATCATQRLA[Dab]FLVHSSNN[αMeF]GPILPPTEVGSNTY-NH2
modifications: disulfide 3-8; N-terminus assumed
SMILES: CC[C@H](C)[C@H](NC(=O)[C@@H]1CCCN1C(=O)CNC(=O)[C@](C)(Cc1ccccc1)NC(=O)[C@H](CC(N)=O)NC(=O)[C@H](CC(N)=O)NC(=O)[C@H](CO)NC(=O)[C@H](CO)NC(=O)[C@H](Cc1c[nH]cn1)NC(=O)[C@@H](NC(=O)[C@H](CC(C)C)NC(=O)[C@H](Cc1ccccc1)NC(=O)[C@H](CCN)NC(=O)[C@H](C)NC(=O)[C@H](CC(C)C)NC(=O)[C@H](CCCNC(=N)N)NC(=O)[C@H](CCC(N)=O)NC(=O)[C@@H](NC(=O)[C@H](C)NC(=O)[C@@H]1CSSC[C@H](NC(=O)[C@H](CCCCN)NC(=O)[C@@H](N)CCCCNC(=O)CC[C@H](NC(=O)CCCCCCCCCCCCCCCCC(=O)O)C(=O)O)C(=O)N[C@@H](CC(N)=O)C(=O)N[C@@H]([C@@H](C)O)C(=O)N[C@@H](C)C(=O)N[C@@H]([C@@H](C)O)C(=O)N1)[C@@H](C)O)C(C)C)C(=O)N[C@@H](CC(C)C)C(=O)N1CCC[C@H]1C(=O)N1CCC[C@H]1C(=O)N[C@H](C(=O)N[C@@H](CCC(=O)O)C(=O)N[C@H](C(=O)NCC(=O)N[C@@H](CO)C(=O)N[C@@H](CC(N)=O)C(=O)N[C@H](C(=O)N[C@@H](Cc1ccc(O)cc1)C(N)=O)[C@@H](C)O)C(C)C)[C@@H](C)O
- EC50 (cAMP production) [1]: 11.1 nM
- EC50 (cAMP production) [2]: 742 pM
- Ratio (EC50 hCTR / EC50 hAMYR3) [2]: 15

B3: Peptide 31 (SEQ ID NO: 31) (peptide)
peptide: K([γGlu-C18 diacid])KCNTATCATQRLANFLVHSS[Dab]NFG[Aib]ILPPTNVGSNTY-NH2
modifications: disulfide 3-8; N-terminus assumed
SMILES: CC[C@H](C)[C@H](NC(=O)C(C)(C)NC(=O)CNC(=O)[C@H](Cc1ccccc1)NC(=O)[C@H](CC(N)=O)NC(=O)[C@H](CCN)NC(=O)[C@H](CO)NC(=O)[C@H](CO)NC(=O)[C@H](Cc1c[nH]cn1)NC(=O)[C@@H](NC(=O)[C@H](CC(C)C)NC(=O)[C@H](Cc1ccccc1)NC(=O)[C@H](CC(N)=O)NC(=O)[C@H](C)NC(=O)[C@H](CC(C)C)NC(=O)[C@H](CCCNC(=N)N)NC(=O)[C@H](CCC(N)=O)NC(=O)[C@@H](NC(=O)[C@H](C)NC(=O)[C@@H]1CSSC[C@H](NC(=O)[C@H](CCCCN)NC(=O)[C@@H](N)CCCCNC(=O)CC[C@H](NC(=O)CCCCCCCCCCCCCCCCC(=O)O)C(=O)O)C(=O)N[C@@H](CC(N)=O)C(=O)N[C@@H]([C@@H](C)O)C(=O)N[C@@H](C)C(=O)N[C@@H]([C@@H](C)O)C(=O)N1)[C@@H](C)O)C(C)C)C(=O)N[C@@H](CC(C)C)C(=O)N1CCC[C@H]1C(=O)N1CCC[C@H]1C(=O)N[C@H](C(=O)N[C@@H](CC(N)=O)C(=O)N[C@H](C(=O)NCC(=O)N[C@@H](CO)C(=O)N[C@@H](CC(N)=O)C(=O)N[C@H](C(=O)N[C@@H](Cc1ccc(O)cc1)C(N)=O)[C@@H](C)O)C(C)C)[C@@H](C)O
- EC50 (cAMP production) [1]: 1.28 nM
- EC50 (cAMP production) [2]: 349 pM
- Ratio (EC50 hCTR / EC50 hAMYR3) [2]: 4

Results, then the binder that gave them:

- EC50 (cAMP production) [3]: 5.9 pM
- EC50 (cAMP production) (rat calcitonin receptor): 514 pM
- EC50 (cAMP production) [1]: 14.2 nM
- EC50 (cAMP production) [2]: 259 pM
- Ratio (EC50 hCTR / EC50 hAMYR3) [2]: 55
B2: Peptide 35 (SEQ ID NO: 35) (peptide)
peptide: K([γGlu-C18 diacid])KCNTATCATQRLANFLVHSS[Aib]NFGPILPPTNVGSNTY-NH2
modifications: disulfide 3-8; N-terminus assumed
SMILES: CC[C@H](C)[C@H](NC(=O)[C@@H]1CCCN1C(=O)CNC(=O)[C@H](Cc1ccccc1)NC(=O)[C@H](CC(N)=O)NC(=O)C(C)(C)NC(=O)[C@H](CO)NC(=O)[C@H](CO)NC(=O)[C@H](Cc1c[nH]cn1)NC(=O)[C@@H](NC(=O)[C@H](CC(C)C)NC(=O)[C@H](Cc1ccccc1)NC(=O)[C@H](CC(N)=O)NC(=O)[C@H](C)NC(=O)[C@H](CC(C)C)NC(=O)[C@H](CCCNC(=N)N)NC(=O)[C@H](CCC(N)=O)NC(=O)[C@@H](NC(=O)[C@H](C)NC(=O)[C@@H]1CSSC[C@H](NC(=O)[C@H](CCCCN)NC(=O)[C@@H](N)CCCCNC(=O)CC[C@H](NC(=O)CCCCCCCCCCCCCCCCC(=O)O)C(=O)O)C(=O)N[C@@H](CC(N)=O)C(=O)N[C@@H]([C@@H](C)O)C(=O)N[C@@H](C)C(=O)N[C@@H]([C@@H](C)O)C(=O)N1)[C@@H](C)O)C(C)C)C(=O)N[C@@H](CC(C)C)C(=O)N1CCC[C@H]1C(=O)N1CCC[C@H]1C(=O)N[C@H](C(=O)N[C@@H](CC(N)=O)C(=O)N[C@H](C(=O)NCC(=O)N[C@@H](CO)C(=O)N[C@@H](CC(N)=O)C(=O)N[C@H](C(=O)N[C@@H](Cc1ccc(O)cc1)C(N)=O)[C@@H](C)O)C(C)C)[C@@H](C)O

- EC50 (cAMP production) [1]: 15.8 nM
- EC50 (cAMP production) [2]: 598 pM
- Ratio (EC50 hCTR / EC50 hAMYR3) [2]: 26
B4: Peptide 33 (SEQ ID NO: 33) (peptide)
peptide: K([γGlu-C18 diacid])KCNTATCATQRLA[Dab]FLVHSSNNFGPILPPTNVGSNTY-NH2
modifications: disulfide 3-8; N-terminus assumed
SMILES: CC[C@H](C)[C@H](NC(=O)[C@@H]1CCCN1C(=O)CNC(=O)[C@H](Cc1ccccc1)NC(=O)[C@H](CC(N)=O)NC(=O)[C@H](CC(N)=O)NC(=O)[C@H](CO)NC(=O)[C@H](CO)NC(=O)[C@H](Cc1c[nH]cn1)NC(=O)[C@@H](NC(=O)[C@H](CC(C)C)NC(=O)[C@H](Cc1ccccc1)NC(=O)[C@H](CCN)NC(=O)[C@H](C)NC(=O)[C@H](CC(C)C)NC(=O)[C@H](CCCNC(=N)N)NC(=O)[C@H](CCC(N)=O)NC(=O)[C@@H](NC(=O)[C@H](C)NC(=O)[C@@H]1CSSC[C@H](NC(=O)[C@H](CCCCN)NC(=O)[C@@H](N)CCCCNC(=O)CC[C@H](NC(=O)CCCCCCCCCCCCCCCCC(=O)O)C(=O)O)C(=O)N[C@@H](CC(N)=O)C(=O)N[C@@H]([C@@H](C)O)C(=O)N[C@@H](C)C(=O)N[C@@H]([C@@H](C)O)C(=O)N1)[C@@H](C)O)C(C)C)C(=O)N[C@@H](CC(C)C)C(=O)N1CCC[C@H]1C(=O)N1CCC[C@H]1C(=O)N[C@H](C(=O)N[C@@H](CC(N)=O)C(=O)N[C@H](C(=O)NCC(=O)N[C@@H](CO)C(=O)N[C@@H](CC(N)=O)C(=O)N[C@H](C(=O)N[C@@H](Cc1ccc(O)cc1)C(N)=O)[C@@H](C)O)C(C)C)[C@@H](C)O

- EC50 (cAMP production) [1]: 17.7 nM
- EC50 (cAMP production) [2]: 877 pM
- Ratio (EC50 hCTR / EC50 hAMYR3) [2]: 20
B5: Peptide 34 (SEQ ID NO: 34) (peptide)
peptide: K([γGlu-C18 diacid])KCNTATCATQRLA[Dab]FLVHSSNNFGPILPPTEVGSNTY-NH2
modifications: disulfide 3-8; N-terminus assumed
SMILES: CC[C@H](C)[C@H](NC(=O)[C@@H]1CCCN1C(=O)CNC(=O)[C@H](Cc1ccccc1)NC(=O)[C@H](CC(N)=O)NC(=O)[C@H](CC(N)=O)NC(=O)[C@H](CO)NC(=O)[C@H](CO)NC(=O)[C@H](Cc1c[nH]cn1)NC(=O)[C@@H](NC(=O)[C@H](CC(C)C)NC(=O)[C@H](Cc1ccccc1)NC(=O)[C@H](CCN)NC(=O)[C@H](C)NC(=O)[C@H](CC(C)C)NC(=O)[C@H](CCCNC(=N)N)NC(=O)[C@H](CCC(N)=O)NC(=O)[C@@H](NC(=O)[C@H](C)NC(=O)[C@@H]1CSSC[C@H](NC(=O)[C@H](CCCCN)NC(=O)[C@@H](N)CCCCNC(=O)CC[C@H](NC(=O)CCCCCCCCCCCCCCCCC(=O)O)C(=O)O)C(=O)N[C@@H](CC(N)=O)C(=O)N[C@@H]([C@@H](C)O)C(=O)N[C@@H](C)C(=O)N[C@@H]([C@@H](C)O)C(=O)N1)[C@@H](C)O)C(C)C)C(=O)N[C@@H](CC(C)C)C(=O)N1CCC[C@H]1C(=O)N1CCC[C@H]1C(=O)N[C@H](C(=O)N[C@@H](CCC(=O)O)C(=O)N[C@H](C(=O)NCC(=O)N[C@@H](CO)C(=O)N[C@@H](CC(N)=O)C(=O)N[C@H](C(=O)N[C@@H](Cc1ccc(O)cc1)C(N)=O)[C@@H](C)O)C(C)C)[C@@H](C)O
